Measurements as given in the supplement of paper PMC10567573.

B1: NCK2 (parent)
chain: YVERKNSLKKGSLVKNLKDTLGLG

Variants of: B1
Test: protein stability index of a GFP-peptide fusion (GPS, HEK-293T) (PSI 1-6); higher = more stable
Details: c terminus: a fixed tail appended
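Also: lentivirally expressed fusions sorted by FACS into six bins by GFP to DsRed ratio, PSI derived from sequencing read proportions per bin multiplied by bin number.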

Protein stability index of substitutions, site by site:
S12: E 2.4; W 2.17; F 2.53; T 2.01; D 2.79; Y 2.19; R 2.22; G 2.07; H 1.98; Q 2.27; K 2.71; C 2.13; I 2.46; P 2.31; M 1.75; L 1.64; V 2.38; A 2.22; N 2.63
N16: P 2.61; C 2.1; T 2.41; I 2.18; K 2.04; L 2.14; Y 1.89; E 2.73; Q 1.97; H 2.28; W 1.68; S 2.16; D 2.29; R 1.98; G 2.3; F 2.69; M 1.3; V 1.83; A 2.33
K18: V 2.42; Y 2.41; T 2.65; W 1.8; L 2.08; E 2.46; G 1.84; R 2.46; C 2.94; F 1.33; S 2.07; Q 2.48; D 2.39; A 2.25; P 2.56; H 2.6; M 1.72; N 2.3; I 2.84
K10: D 2.56; C 2.29; F 2.48; N 1.83; S 2.31; R 2.17; L 2.17; Y 1.68; W 1.78; E 2.29; G 1.93; M 1.94; P 1.88; H 1.82; T 1.82; V 2.04; Q 2.59; A 2.11; I 1.89
V14: L 2.31; F 1.96; I 2.35; W 1.89; K 2.25; N 2.44; A 2.53; H 1.84; M 2.46; D 2.84; P 2.3; R 2.6; S 2.07; Y 1.98; E 2.16; T 2.66; C 2.08; Q 2.74; G 2.04
K5: A 2.12; G 2.34; Y 2.84; R 2.52; P 1.89; H 2.13; S 2.24; V 2.2; E 2.92; Q 2.39; N 2.4; C 1.75; I 1.99; D 2.26; M 1.79; F 2.58; T 2.02; L 1.51; W 2.57
R4: Q 2.2; N 2.48; V 1.78; S 2.26; M 1.62; W 1.57; L 1.57; K 2.46; P 2.2; Y 1.33; I 1.81; T 1.78
K15: T 2.56; C 2.12; H 2.23; Y 1.91; W 1.98; F 1.69; G 2.49; S 2.26; L 2.36; N 2.41; P 1.99; I 1.77; D 2.7; V 1.94; Q 2; E 2.81; M 2.47; R 1.81; A 2.09
S7: L 2.43; Q 2.15; M 1.88; N 2.07; A 2.29; T 2.16; H 2.02; R 2.22; W 3.27; Y 1.74; E 2.9; D 2.57; K 2.84; V 1.94; P 1.82; I 1.86; C 2.22; G 1.99; F 2.66
L13: Y 2.52; W 2.04; I 2.13; M 2.22; T 2.63; G 2.41; E 2.87; S 2.54; A 3.01; H 2.29; C 1.97; N 2.44; P 3.05; D 2.8; F 1.86; K 2.38; R 1.99; Q 2.64; V 2.64
K9: E 2.59; C 1.94; D 2.37; Q 2.32; T 2.17; P 2.05; G 2.39; I 2.51; W 2.37; R 2.54; M 1.92; L 3.07; F 3.15; A 2.15; H 2.1; Y 2.28; S 2.84; N 2.32; V 2.48
G22: C 2.01
L17: S 2.41; E 2.85; M 2.78; W 1.69; G 2.88; V 2.8; Y 2.73; K 3; R 2.58; I 2.43; T 2.79; C 2.55; Q 3.16; N 2.77; H 2.34; F 1.87; P 2.13; A 2.62; D 2.92
L21: R 1.98; D 2.81; F 2.18; M 2.64; S 2.51; K 2.32; N 2.33; A 2.4; I 2.42; C 2.71; Q 2.3; H 2.3; G 2.49; Y 2.41; W 2.12; V 2.25; E 2.74; T 2.44; P 2.39
N6: Y 1.64; L 1.1; C 1.73; A 2.24; S 2.1; M 2.29; R 2.25; F 1.58; W 2.32; V 1.58; K 2.67; T 1.94; Q 2.53; P 2.28; I 2.39; E 2.85; D 2.74; H 2.61; G 2.38
G11: W 1.93; I 1.68; A 2.18; F 2.69; Q 3.13; K 2.9; V 2.42; H 2.02; L 1.87; E 2.72; C 2.09; T 2.06; R 2.32; N 2.4; D 2.44; S 2.43; Y 1.59; P 2.11; M 1.8
D19: Y 1.49; A 2; F 2.24; G 1.92; L 1.4; E 2.43; P 1.95; Q 2.21; I 2.01; V 1.78; M 2.6; H 1.47; S 2.16; T 1.83; K 1.91; N 2.84; C 2.11; W 2.35
T20: I 3.27; D 2.3; M 2; K 2.37; G 2.45; F 1.75; P 2.21; R 1.97; Y 1.88; S 2.66; V 1.97; A 2.33; L 2.07; C 1.82; H 1.75; N 2.62; E 2.17; Q 2.64
L8: T 2.58; K 2.47; E 2.96; S 1.99; I 2.27; M 2.57; R 2.09; Q 2.88; W 1.89; C 2.41; G 3.27; H 3.11; A 2.42; N 2.55; Y 2.14; V 2.16; F 2.33; P 2.8; D 2.92
